Legend:
Assay in all cases: ITC; WIPI3 proteins in the sample cell, GB1-tagged ATG2A fragments in the syringe; 25 °C; 50 mM Tris-HCl pH 8.0, 100 mM NaCl, 1 mM EDTA, 1 mM DTT; model of one binding site
Conditions in all cases: both partners purified
Hsv2 = Hsv2 (yeast, UniProt P50079 1-448)
[1] = molecular target: T1, WIPI3 (full-length, wild-type) (human, UniProt Q5MNZ6 1-344)
T1 construct: human WIPI3, full length; also called wild-type WIPI3; full-length WIPI3; source: E. coli BL21(DE3), purified (Ni2+-Sepharose, size-exclusion chromatography)

WIPI3-Δloop = molecular target: T2, WIPI3-Δloop (human, UniProt Q5MNZ6 1-344, Blade 2 B-C loop (75-80) deleted | Blade 6 C-D loop (264-281) deleted)
T2 construct: human WIPI3 with deletions of the Blade 2 B-C loop (75-80) and the Blade 6 C-D loop (264-281); also called loop-deletion mutant of WIPI3; source: E. coli BL21(DE3), purified (Ni2+-Sepharose, size-exclusion chromatography)
T2 sequence (Q5MNZ6 other isoform, or with tags, fused parts or gaps with the stated changes): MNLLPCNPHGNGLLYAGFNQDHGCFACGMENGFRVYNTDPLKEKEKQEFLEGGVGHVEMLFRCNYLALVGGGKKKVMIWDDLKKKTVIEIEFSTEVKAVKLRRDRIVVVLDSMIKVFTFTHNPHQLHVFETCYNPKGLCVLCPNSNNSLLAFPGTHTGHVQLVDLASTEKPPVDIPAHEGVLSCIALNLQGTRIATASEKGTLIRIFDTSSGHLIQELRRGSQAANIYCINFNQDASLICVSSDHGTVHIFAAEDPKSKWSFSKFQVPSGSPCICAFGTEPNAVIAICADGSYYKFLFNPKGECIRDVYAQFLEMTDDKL

T1 sequence (Q5MNZ6 whole entry): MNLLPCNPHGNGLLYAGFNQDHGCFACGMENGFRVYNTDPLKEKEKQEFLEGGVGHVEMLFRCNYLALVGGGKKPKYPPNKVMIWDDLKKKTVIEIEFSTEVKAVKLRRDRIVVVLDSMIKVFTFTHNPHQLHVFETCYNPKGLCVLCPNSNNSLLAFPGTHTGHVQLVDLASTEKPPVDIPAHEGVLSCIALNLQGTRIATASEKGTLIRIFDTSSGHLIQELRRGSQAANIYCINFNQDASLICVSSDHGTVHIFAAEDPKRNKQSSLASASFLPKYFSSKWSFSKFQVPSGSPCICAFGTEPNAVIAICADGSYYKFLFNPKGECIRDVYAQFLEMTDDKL
Hsv2, sequence (P50079 whole entry): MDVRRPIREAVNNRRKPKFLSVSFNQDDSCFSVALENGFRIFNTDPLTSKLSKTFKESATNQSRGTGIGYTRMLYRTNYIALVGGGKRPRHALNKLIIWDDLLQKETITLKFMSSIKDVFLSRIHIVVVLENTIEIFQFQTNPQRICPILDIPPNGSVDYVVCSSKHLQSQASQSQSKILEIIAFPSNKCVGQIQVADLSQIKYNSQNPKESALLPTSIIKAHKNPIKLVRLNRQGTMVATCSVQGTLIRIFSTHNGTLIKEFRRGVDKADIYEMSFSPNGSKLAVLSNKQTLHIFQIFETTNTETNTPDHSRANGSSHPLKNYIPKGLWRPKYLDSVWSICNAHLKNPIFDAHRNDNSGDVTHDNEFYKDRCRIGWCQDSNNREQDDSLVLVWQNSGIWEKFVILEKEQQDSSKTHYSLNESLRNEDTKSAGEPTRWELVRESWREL

Row | Binder | Kd [1] [µM] | Kd (WIPI3-Δloop) [µM] | binding result (WIPI3-Δloop) | also measured
1 | PRDGEPVVTQLHPGPIVVRDGYFSRPIGSTD (peptide, UniProt Q2TAZ0 1374-1404, looked up, human ATG2A residues 1374-1404; In the crystal (PDB 6KLR) the same stretch stood fused to the N-terminus of WIPI3-Δloop without the GB1 tag; source: E. coli BL21(DE3), purified (Ni2+-Sepharose, size-exclusion chromatography), tag not cleaved) [GB1-tagged ATG2A short fragment (1374-1404), the WIR-peptide] | 8.7 ± 0.1 | 6.4 ± 0.7 | – | Kd (Hsv2): 21.5 ± 2 µM; stoichiometry N (WIPI3-Δloop): 1
2 | PRDGEPAVTQLHPGPIVVRDGYFSRPIGSTD (peptide, UniProt Q2TAZ0 1374-1404, looked up, human ATG2A residues 1374-1404 with V1380A; source: E. coli BL21(DE3), purified (Ni2+-Sepharose, size-exclusion chromatography), tag not cleaved) [GB1-tagged WIR-peptide V1380A] | – | – | binds | –
3 | PRDGEPVVAQLHPGPIVVRDGYFSRPIGSTD (peptide, UniProt Q2TAZ0 1374-1404, looked up, human ATG2A residues 1374-1404 with T1382A; source: E. coli BL21(DE3), purified (Ni2+-Sepharose, size-exclusion chromatography), tag not cleaved) [GB1-tagged WIR-peptide T1382A] | – | – | binds | –
4 | PRDGEPQVTQLHPGPIVVRDGYFSRPIGSTD (peptide, UniProt Q2TAZ0 1374-1404, looked up, human ATG2A residues 1374-1404 with V1380Q; source: E. coli BL21(DE3), purified (Ni2+-Sepharose, size-exclusion chromatography), tag not cleaved) [GB1-tagged WIR-peptide V1380Q] | – | – | binds | –
5 | PRDGEPVVQQLHPGPIVVRDGYFSRPIGSTD (peptide, UniProt Q2TAZ0 1374-1404, looked up, human ATG2A residues 1374-1404 with T1382Q; source: E. coli BL21(DE3), purified (Ni2+-Sepharose, size-exclusion chromatography), tag not cleaved) [GB1-tagged WIR-peptide T1382Q] | – | – | binds | –
6 | DSDEFCILDAPGLGIPPRDGEPVVTQLHPGPIVVRDGYFSRPIGSTD (domain or fragment, human, UniProt Q2TAZ0 1358-1404, looked up, human ATG2A residues 1358-1404; source: E. coli BL21(DE3), purified (Ni2+-Sepharose, size-exclusion chromatography), tag not cleaved) [GB1-tagged ATG2A long fragment (1358-1404)] | 8.6 ± 0.1 | 6.3 ± 0.2 | – | –

Source: PMC7264293, “Multi-site-mediated entwining of the linear WIR-motif around WIPI β-propellers for autophagy” (Nature Communications, 2020)
